{"source": "patent US20140357845A1", "biological_target": "miniHA (A/Brisbane/59/2007) (influenza A virus H1N1), A8C8J4", "test": "FACS", "conditions": "remark: other sources report otherwise"}
{"binder": "CR6261 (antibody, V domains shown) VH: EVQLVESGAEVKKPGSSVKVSCKASGGPFRSYAISWVRQAPGQGPEWMGGIIPIFGTTKYAPKFQGRVTITADDFAGTVYMELSSLRSEDTAMYYCAKHMGYQVRETMDVWGKGTTVTVSS VL: QSVLTQPPSVSAAPGQKVTISCSGSSSNIGNDYVSWYQQLPGTAPKLLIYDNNKRPSGIPDRFSGSKSGTSATLGITGLQTGDEANYYCATWDRRPTAYVVFGGGTKLTVLG", "values": [{"measurement": "% positive cells", "value": "1 to 3", "unit": "%"}]}
